The numbers were not newly measured in patent publication US20090069376A1, “VLA-4 Antagonists” (priority 2005, published 2009), which cites them from elsewhere.

This series concerns the target VLA-4 (Homo sapiens, UniProt P13612). The note with it: early clinical trials.

natalizumab: the receptor occupancy was greater than 80%.
